Experimental data published in paper PMC5437232, “Structure of human promyeloperoxidase (proMPO) and the role of the propeptide in processing and maturation” (The Journal of Biological Chemistry, 2017).

Target: the molecule itself
Experiment: SAXS; proteins in solution, 50 mM PBS, pH 7.4; concentrated to 1 mg/liter; 20 °C; SIBYLS beam line 12.3.1; Guinier plots and pair-density distributions compared with the crystal structures

B1: dimeric mature leukocyte myeloperoxidase (complex)
light: not shown
heavy: TGVNCETSCVQQPPCFPLKIPPNDPRIKNQADCIPFFRSCPACPGSNITIRNQINALTSFVDASMVYGSEEPLARNLRNMSNQLGLLAVNQRFQDNGRALLPFDNLHDDPCLLTNRSARIPCFLAGDTRSSEMPELTSMHTLLLREHNRLATELKSLNPRWDGERLYQEARKIVGAMVQIITYRDYLPLVLGPTAMRKYLPTYRSYNDSVDPRIANVFTNAFRYGHTLIQPFMFRLDNRYQPMEPNPRVPLSRVFFASWRVVLEGGIDPILRGLMATPAKLNRQNQIAVDEIRERLFEQVMRIGLDLPALNMQRSRDHGLPGYNAWRRFCGLPQPETVGQLGTVLRNLKLARKLMEQYGTPNNIDIWMGGVSEPLKRKGRVGPLLACIIGTQFRKLRDGDRFWWENEGVFSMQQRQALAQISLPRIICDNTGITTVSKNNIFMSNSYPRDFVNCSTLPALNLASWREAS
modifications: heme covalently bound | glycosylated; heme covalently bound; interchain disulfide Cys-319-Cys-319 between the two H-chains
notes: Myeloperoxidase, human, 14.5-kDa light polypeptide (L-chain) of mature MPO; three N termini found by mass spectrometry: Gly-164, Val-165 and Thr-166; ends before the excised peptide that begins at Ala-273; numbers on the 745-aa primary translation product; Myeloperoxidase, human, 59-kDa heavy polypeptide (H-chain) of mature MPO; three N termini found by mass spectrometry: Thr-277, Gly-278 and …
stoichiometry N: 2
